Test results as given in publication PMC3836175 (Science (New York, N.Y.), 2013).

Biological target: T1, N-terminally truncated eIF5B (residues 396-1002) with the point mutation T439A (S. cerevisiae, UniProt P39730 396-1002, T439A)
T1 sequence (looked up): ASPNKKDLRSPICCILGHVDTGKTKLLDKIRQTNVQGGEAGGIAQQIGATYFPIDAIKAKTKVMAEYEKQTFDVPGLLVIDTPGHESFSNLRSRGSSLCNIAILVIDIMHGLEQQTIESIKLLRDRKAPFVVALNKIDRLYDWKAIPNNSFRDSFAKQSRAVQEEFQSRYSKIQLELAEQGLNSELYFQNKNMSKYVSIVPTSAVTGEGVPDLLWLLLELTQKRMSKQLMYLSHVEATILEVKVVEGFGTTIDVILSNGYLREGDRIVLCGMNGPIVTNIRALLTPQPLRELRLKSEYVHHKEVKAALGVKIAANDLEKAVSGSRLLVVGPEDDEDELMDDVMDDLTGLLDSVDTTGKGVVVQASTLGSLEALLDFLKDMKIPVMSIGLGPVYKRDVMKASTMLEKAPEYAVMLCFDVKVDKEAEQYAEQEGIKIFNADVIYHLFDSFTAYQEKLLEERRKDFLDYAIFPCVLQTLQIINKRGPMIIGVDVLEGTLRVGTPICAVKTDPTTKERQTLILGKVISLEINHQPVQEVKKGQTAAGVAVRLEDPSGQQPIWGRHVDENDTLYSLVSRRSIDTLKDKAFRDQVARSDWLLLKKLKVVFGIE
Assay: cryo-EM structure

B1: ribosomal protein S23 (the yeast orthologue of bacterial protein S12) (natural protein, UniProt P0CX29 1-145, looked up)
chain: MGKGKPRGLNSARKLRVHRRNNRWAENNYKKRLLGTAFKSSPFGGSSHAKGIVLEKLGIESKQPNSAIRKCVRVQLIKNGKKVTAFVPNDGCLNFVDENDEVLLAGFGRKGKAKGDIPGVRFKVVKVSGVSLLALWKEKKEKPRS
  binding result: binds
